Data as given in PMC7948404.

Biological target: CysLTR2-V2(A)6 L129Q (GFP10 fusion) (UniProt Q9NS75)
Test: FRET or BRET; BRET^2 saturation-binding in live HEK293T cells: 5 ng β-arrestin2-RLuc3 and 0-200 ng receptor-GFP10 DNA per well; unstimulated, or WT with 1 μM LTD4 for 10 min at RT; BRET^2 ratio against normalized GFP10 fluorescence, one-site fit with shared Bmax; constitutive activity from Bmax/Kd, normalized to the fully LTD4-stimulated WT receptor

Sequence of UniProt Q9NS75 (Q9NS75 other isoform, or with tags, fused parts or gaps L129Q | L129Q): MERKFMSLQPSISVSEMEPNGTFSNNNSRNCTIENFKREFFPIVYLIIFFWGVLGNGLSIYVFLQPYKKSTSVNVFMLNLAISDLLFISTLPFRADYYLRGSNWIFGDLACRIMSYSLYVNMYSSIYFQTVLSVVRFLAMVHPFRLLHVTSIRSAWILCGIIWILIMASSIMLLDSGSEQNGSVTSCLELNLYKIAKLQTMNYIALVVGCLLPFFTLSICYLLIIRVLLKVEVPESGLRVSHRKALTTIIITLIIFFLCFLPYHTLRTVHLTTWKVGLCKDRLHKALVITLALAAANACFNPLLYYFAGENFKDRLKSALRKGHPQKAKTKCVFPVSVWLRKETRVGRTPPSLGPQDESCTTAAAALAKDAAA

constitutive activity of β-arrestin recruitment (% of LTD4-stimulated WT receptor): 17.8%
Substance: β-arrestin2-RLuc3 (from UniProt P32121 1-409) (natural protein)
